Test [1] deals with T1, GFP-MKLP2 WT (human), O95235.
T1 chain: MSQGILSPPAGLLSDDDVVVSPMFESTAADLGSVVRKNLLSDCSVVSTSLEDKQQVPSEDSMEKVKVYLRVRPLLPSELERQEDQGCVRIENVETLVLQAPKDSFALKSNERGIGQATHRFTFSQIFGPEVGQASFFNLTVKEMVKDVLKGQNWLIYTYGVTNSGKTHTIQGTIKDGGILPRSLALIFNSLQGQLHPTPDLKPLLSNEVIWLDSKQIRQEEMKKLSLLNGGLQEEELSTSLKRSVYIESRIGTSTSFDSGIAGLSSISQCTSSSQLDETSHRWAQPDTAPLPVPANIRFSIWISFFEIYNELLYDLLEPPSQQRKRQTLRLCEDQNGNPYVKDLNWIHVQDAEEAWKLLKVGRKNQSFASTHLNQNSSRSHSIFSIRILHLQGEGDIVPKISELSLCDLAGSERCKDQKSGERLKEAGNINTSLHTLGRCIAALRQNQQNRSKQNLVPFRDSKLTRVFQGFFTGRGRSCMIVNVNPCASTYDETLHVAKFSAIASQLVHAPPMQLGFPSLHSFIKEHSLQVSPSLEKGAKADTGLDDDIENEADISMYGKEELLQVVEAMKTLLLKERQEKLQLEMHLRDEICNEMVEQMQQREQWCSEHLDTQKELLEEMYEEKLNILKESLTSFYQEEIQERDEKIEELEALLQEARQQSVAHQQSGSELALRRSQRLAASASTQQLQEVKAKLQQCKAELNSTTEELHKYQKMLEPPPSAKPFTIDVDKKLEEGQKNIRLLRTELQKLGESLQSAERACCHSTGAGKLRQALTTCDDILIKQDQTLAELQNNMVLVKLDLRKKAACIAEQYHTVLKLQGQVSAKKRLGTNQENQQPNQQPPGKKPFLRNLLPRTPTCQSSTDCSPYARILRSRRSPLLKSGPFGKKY
In words: SEC; 1 mg lysate of nocodazole-arrested HeLa cells on Superose 6 10/300 at 4°C; fractions Western blotted for MKLP2 and GFP; size from calibration standards. The conditions noted are these: remark: other sources report otherwise. For orientation: SEC sorts molecules by how far they enter the pores of the column.

Test [2] has as its target T2, MKLP2 (endogenous) (human (endogenous in HeLa)), O95235.
T2 chain: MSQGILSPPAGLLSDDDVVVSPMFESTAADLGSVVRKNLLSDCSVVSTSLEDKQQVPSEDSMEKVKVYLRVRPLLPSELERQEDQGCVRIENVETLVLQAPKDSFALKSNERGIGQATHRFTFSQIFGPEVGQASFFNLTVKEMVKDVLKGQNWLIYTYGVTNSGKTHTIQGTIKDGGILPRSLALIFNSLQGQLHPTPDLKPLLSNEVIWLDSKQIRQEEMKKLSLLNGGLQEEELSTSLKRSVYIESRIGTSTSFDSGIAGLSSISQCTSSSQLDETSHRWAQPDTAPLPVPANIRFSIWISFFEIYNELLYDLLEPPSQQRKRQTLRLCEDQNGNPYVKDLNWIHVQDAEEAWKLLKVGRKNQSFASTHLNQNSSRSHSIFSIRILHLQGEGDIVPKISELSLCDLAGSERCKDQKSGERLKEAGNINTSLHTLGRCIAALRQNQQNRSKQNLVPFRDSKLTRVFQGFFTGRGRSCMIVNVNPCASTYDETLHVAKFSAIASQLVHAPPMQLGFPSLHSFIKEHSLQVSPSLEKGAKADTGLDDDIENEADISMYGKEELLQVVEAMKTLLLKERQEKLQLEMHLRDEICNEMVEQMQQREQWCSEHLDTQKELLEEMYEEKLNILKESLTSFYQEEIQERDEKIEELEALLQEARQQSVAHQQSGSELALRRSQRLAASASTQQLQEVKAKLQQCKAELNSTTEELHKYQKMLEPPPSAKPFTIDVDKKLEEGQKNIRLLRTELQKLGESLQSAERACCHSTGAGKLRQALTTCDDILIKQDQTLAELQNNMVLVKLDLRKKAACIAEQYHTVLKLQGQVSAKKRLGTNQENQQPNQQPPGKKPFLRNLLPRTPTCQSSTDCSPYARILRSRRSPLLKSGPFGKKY
The test is described as above. The conditions noted are these: remark: other sources report otherwise.

B1: GFP-MKLP2 WT, O95235 1-890 (natural protein)
chain: MSQGILSPPAGLLSDDDVVVSPMFESTAADLGSVVRKNLLSDCSVVSTSLEDKQQVPSEDSMEKVKVYLRVRPLLPSELERQEDQGCVRIENVETLVLQAPKDSFALKSNERGIGQATHRFTFSQIFGPEVGQASFFNLTVKEMVKDVLKGQNWLIYTYGVTNSGKTHTIQGTIKDGGILPRSLALIFNSLQGQLHPTPDLKPLLSNEVIWLDSKQIRQEEMKKLSLLNGGLQEEELSTSLKRSVYIESRIGTSTSFDSGIAGLSSISQCTSSSQLDETSHRWAQPDTAPLPVPANIRFSIWISFFEIYNELLYDLLEPPSQQRKRQTLRLCEDQNGNPYVKDLNWIHVQDAEEAWKLLKVGRKNQSFASTHLNQNSSRSHSIFSIRILHLQGEGDIVPKISELSLCDLAGSERCKDQKSGERLKEAGNINTSLHTLGRCIAALRQNQQNRSKQNLVPFRDSKLTRVFQGFFTGRGRSCMIVNVNPCASTYDETLHVAKFSAIASQLVHAPPMQLGFPSLHSFIKEHSLQVSPSLEKGAKADTGLDDDIENEADISMYGKEELLQVVEAMKTLLLKERQEKLQLEMHLRDEICNEMVEQMQQREQWCSEHLDTQKELLEEMYEEKLNILKESLTSFYQEEIQERDEKIEELEALLQEARQQSVAHQQSGSELALRRSQRLAASASTQQLQEVKAKLQQCKAELNSTTEELHKYQKMLEPPPSAKPFTIDVDKKLEEGQKNIRLLRTELQKLGESLQSAERACCHSTGAGKLRQALTTCDDILIKQDQTLAELQNNMVLVKLDLRKKAACIAEQYHTVLKLQGQVSAKKRLGTNQENQQPNQQPPGKKPFLRNLLPRTPTCQSSTDCSPYARILRSRRSPLLKSGPFGKKY
In test [1], B1 came in with a stoichiometry N of 2.

B2: MKLP2 (endogenous), O95235 1-890 (natural protein)
chain: MSQGILSPPAGLLSDDDVVVSPMFESTAADLGSVVRKNLLSDCSVVSTSLEDKQQVPSEDSMEKVKVYLRVRPLLPSELERQEDQGCVRIENVETLVLQAPKDSFALKSNERGIGQATHRFTFSQIFGPEVGQASFFNLTVKEMVKDVLKGQNWLIYTYGVTNSGKTHTIQGTIKDGGILPRSLALIFNSLQGQLHPTPDLKPLLSNEVIWLDSKQIRQEEMKKLSLLNGGLQEEELSTSLKRSVYIESRIGTSTSFDSGIAGLSSISQCTSSSQLDETSHRWAQPDTAPLPVPANIRFSIWISFFEIYNELLYDLLEPPSQQRKRQTLRLCEDQNGNPYVKDLNWIHVQDAEEAWKLLKVGRKNQSFASTHLNQNSSRSHSIFSIRILHLQGEGDIVPKISELSLCDLAGSERCKDQKSGERLKEAGNINTSLHTLGRCIAALRQNQQNRSKQNLVPFRDSKLTRVFQGFFTGRGRSCMIVNVNPCASTYDETLHVAKFSAIASQLVHAPPMQLGFPSLHSFIKEHSLQVSPSLEKGAKADTGLDDDIENEADISMYGKEELLQVVEAMKTLLLKERQEKLQLEMHLRDEICNEMVEQMQQREQWCSEHLDTQKELLEEMYEEKLNILKESLTSFYQEEIQERDEKIEELEALLQEARQQSVAHQQSGSELALRRSQRLAASASTQQLQEVKAKLQQCKAELNSTTEELHKYQKMLEPPPSAKPFTIDVDKKLEEGQKNIRLLRTELQKLGESLQSAERACCHSTGAGKLRQALTTCDDILIKQDQTLAELQNNMVLVKLDLRKKAACIAEQYHTVLKLQGQVSAKKRLGTNQENQQPNQQPPGKKPFLRNLLPRTPTCQSSTDCSPYARILRSRRSPLLKSGPFGKKY
On to B2, for which, in test [2], the stoichiometry N came to 2.

Usually stoichiometry N stands for a count of units in the complex or per binding partner.

The values are drawn from publication PMC7337490.
